Positions count from the first letter of the chain named.
T1: cynomolgus ABCG2 (Macaca fascicularis) (UniProt Q5MB13 1-654)
T1 chain: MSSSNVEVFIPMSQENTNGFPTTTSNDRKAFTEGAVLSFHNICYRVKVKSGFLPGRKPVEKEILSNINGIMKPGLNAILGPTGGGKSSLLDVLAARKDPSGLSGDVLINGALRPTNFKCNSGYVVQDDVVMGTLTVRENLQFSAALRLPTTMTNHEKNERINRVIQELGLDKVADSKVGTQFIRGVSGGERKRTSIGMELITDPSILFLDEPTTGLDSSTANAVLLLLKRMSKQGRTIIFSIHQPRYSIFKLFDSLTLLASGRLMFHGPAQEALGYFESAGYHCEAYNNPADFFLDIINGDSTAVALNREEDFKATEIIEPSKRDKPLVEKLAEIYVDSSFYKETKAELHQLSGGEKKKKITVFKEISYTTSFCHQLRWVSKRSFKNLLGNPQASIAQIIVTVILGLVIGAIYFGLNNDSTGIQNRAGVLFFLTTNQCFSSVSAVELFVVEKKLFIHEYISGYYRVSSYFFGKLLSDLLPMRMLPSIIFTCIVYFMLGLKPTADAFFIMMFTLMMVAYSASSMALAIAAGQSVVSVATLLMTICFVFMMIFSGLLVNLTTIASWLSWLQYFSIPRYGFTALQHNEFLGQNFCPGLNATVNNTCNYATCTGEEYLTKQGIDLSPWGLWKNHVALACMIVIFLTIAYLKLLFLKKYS

T2: human ABCG2 (UniProt Q9UNQ0 1-655)
T2 chain: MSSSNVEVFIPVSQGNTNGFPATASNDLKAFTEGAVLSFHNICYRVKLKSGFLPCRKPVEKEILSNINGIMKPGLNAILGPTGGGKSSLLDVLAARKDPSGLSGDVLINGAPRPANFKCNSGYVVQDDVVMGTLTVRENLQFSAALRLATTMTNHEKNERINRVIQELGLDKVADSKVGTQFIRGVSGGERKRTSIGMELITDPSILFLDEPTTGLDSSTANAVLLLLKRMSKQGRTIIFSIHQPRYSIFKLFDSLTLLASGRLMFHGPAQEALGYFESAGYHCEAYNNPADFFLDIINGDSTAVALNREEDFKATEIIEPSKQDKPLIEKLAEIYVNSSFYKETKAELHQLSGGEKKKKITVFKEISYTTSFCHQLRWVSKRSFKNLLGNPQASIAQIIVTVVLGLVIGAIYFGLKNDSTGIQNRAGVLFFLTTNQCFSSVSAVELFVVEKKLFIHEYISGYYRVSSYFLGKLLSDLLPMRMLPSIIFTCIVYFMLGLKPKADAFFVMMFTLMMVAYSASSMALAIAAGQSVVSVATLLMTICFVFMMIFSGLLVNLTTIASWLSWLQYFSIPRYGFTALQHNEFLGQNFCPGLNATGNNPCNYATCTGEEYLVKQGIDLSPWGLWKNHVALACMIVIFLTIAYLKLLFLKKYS

B1: G2.636.hu25 (antibody, V domains shown)
VH: EVQLVESGGGLVQPGGSLRLSCAASGFTFSRFYMAWVRQAPGKGLEWVAHISHGGDTTYYRDSVKGRFTISRDNSKNTLYLQMNSLRAEDTAVYYCTTSAAPWNYVMDGWGQGTLVTVSS
VL: AIQLTQSPSSLSASVGDRVTITCKGSQNINNFLAWYQQKPGKAPKLLIYKTNSLHTGIPSRFSGSGSGTDYTLTISSLQPEDFATYYCYQYNNGYTFGQGTKLEIK
B2: G2.636.hu27 (antibody, V domains shown)
VH: B1 VH
VL: B1 VL with A1D, I21L
B3: G2.636.hu47 humanized (antibody, V domains shown)
VH: B1 VH with T114A, L115T
VL: B1 VL with A1D, I21L
B4: G2.636.hu45 (antibody, V domains shown)
VH: B1 VH with T114A, L115T
VL: B1 VL
B5: G2.65 mouse (antibody, V domains shown)
VH: QGQMHQSGAELVKPGASVKLSCKTSGFTFNSGYISWLKQKPRQSLEWIAWIYAGTGISNFNQKFTGKAQLTVDTSSSTAYMQLSSLTSADSAIYFCASGARKTLDFWGQGTSVTVSS
VL: DIQMTQSSSYLSVSVGGRVTITCKASDQINYWLAWYQQKPGNAPRLLISGATSLETGVPSRFSGSGSGKDYTLSITSFQTEDVATYYCQQYWTTPYTFGGGTKVEIK
B6: G2.173 mouse (antibody, V domains shown)
VH: QVQLQQSGADLVRPGASVKLSCTASGFNIKDDYVHWVKQRPEQGLEWIGRIDPANGNTRYAPKFRGKATMTADTSSNTAYLQLSSLTSADTAVYYCSPPLWVGGFAYWGQGTLVTVSS
VL: DVVMTQTPLSLPVSLGDQASISCRSSQSLVHSDVNTYLHWYLQRPGQSPKLLIYKVSNRFSGVPDRFSGSGSGTDFTLKISRVESEDLGIYFCSQTTHVPYTFGGGTKLEIK
B7: G2.631 rat (antibody, V domains shown)
VH: EVKLLESGGGLVQSGRSLKLSCAASGFIFSRFYMAWVRQAPRKGLEWVAYISNGAGSTYYRESVKGRFIISRDNAKSTLYLQMDSLRSEDTATYYCTTVAAPWNYVMDGWGQGASVTVSS
VL: NIQITQSPSLLSASVGDRVTLSCKGSQNINNYLAWYQQKLGEAPKLLIYKTNSLHTGIPSRFSGSGSGTDYTLTISSLHSEDLATYYCYQYNNGYTFGAGTKLELK
B8: G2.629 rat (antibody, V domains shown)
VH: EVQLVESGGGLVQPGRSLKLSCAASGFIFSRFYMAWVRQAPTKGLEWVAYINTGGGTTYYRDSVKGRFTISRDNAKTTLYLQMDSLRSEDTATYYCTTLAAPWNYVMDAWGQGASVTVSS
VL: B7 VL with N1D, I2V, Q3V, I4M, S22T, Y32F, I48T, A99P
B9: G2.333 rat (antibody, V domains shown)
VH: EIQLQESGPGLVKPSQSLSLTCSVTGYTITSGYDWTWLRKFPGNKMEWMGYISYSGFTNYNPSLRSRISISRDTSKNQFFLQLNSVTTEDTATYYCARTRGYNPFPYWGQGTLVTVSS
VL: DIQMTQSPSLLSASVGDRVSLSCKAGRNVNNYLAWYQQKLGKPPKLLIYNSNSLQTGIPSRFSGSGSGTDFTLTISSLQPEDVATYFCQQYNSWTTFGSGTKLEIK
B10: G2.318 rat (antibody, V domains shown)
VH: B9 VH with I2V, Q3K, Q5L, T36S, L38I, F57W, T99V, P106A
VL: B9 VL with Q3V, S20T, R27Q, V29I, K42E, P43A, S51A
B11: G2.343 rat (antibody, V domains shown)
VH: SVQLKESGPGLVQPSQTLSLTCTVSGFSLTSNGVSWVRQPPGKGLEWIAAISSGGSTYYNSVLKSRLSISRDTSKSQVFLKMNSLQTEDTAIYFCTRDTYYGYNQIPFVYWGQGTLVTVSS
VL: DVVLAQTPPTLSATIGQSVSISCRSSQSLLHSSGNTYLNWLLQRPGQPPQLLIYLVSRLESRVPNRFSGSGSGTDFTLKISGVEAEDLGVYYCVQSTHAPRTFGGGTKLELK
B12: G2.420 rat (antibody, V domains shown)
VH: SVQLMESGPGLVQPSQTLSLTCTVSGFSLNSYNVNWVRQPPGKGLEWIAAISSGGSTYYNSVLKSRLSITRDTSKSQVFLKMNSLQTEDTAMYFCARSGYYSSYMNWGQGVMVTVSS
VL: B11 VL with L4M, A5T, S33T, S61Y, R62G, V94A, P100L, R101N, G105A
B13: G2_732 (antibody, V domains shown)
VH: VQLKESGPGLVQPSQTLSLTCTVSGLSLTSTGVSWIRQPPGKGLEWMGVIWSNGGTDYNSAIKSRLSISRDTSKSQVFLKMNSLQTEDTAMYFCARAIAPSYIMDAWGQGASVTVSS
VL: DIQMTQSPPSLSASLGDKVTITCQASQNIHKYIAWYRQKPGKPPRLLIRYTSTLQSGTPSRFSGSGSGRDYSFSISNVESEDIASYYCLQYVNLWTFGGGTKLELK
B14: G2_392 (antibody, V domains shown)
VH: B13 VH with K4V, G9D, K42R, K63R, P100A
VL: B13 VL with Q38H
B15: G2_767 (antibody, V domains shown)
VH: QVQLKESGPGLVQPSQTLSLTCTVSGLSLSSNSVSWIRQPPGKGLEWMGVIWNNGGTDYNSAIKSRLSISRDTSKSQVFLKLSSLQTEDTAMYFCARGYSSYIFDYWGQGVMVTVSS
VL: DIQMTQSPPSLSASLGDKVTITCQSSQNINNYIAWYQQKPGEAPRVLIRYTSTLQSGAPSRFSGSGSWRDYSFTISNVESEDIADYYCLQYVNLWTFGGGTKLEIK
B16: G2.758 rat (antibody, V domains shown)
VH: QGTLKESGPGIVQSSHTLSLTCSFSGFSLSTYGMGVSWIRQPSGKGLEWLASVWWNGDTSNNPSLKSRLTVSKDTS
VL: DIQMTQSPPSLSASLGDKVTITCQASQNIYKYIAWYQQKPGKAPRLLIRYTSTLHFGTPSRFSGSGSGRDYSFSISNVESEDIARYYCQQYVKFPNTFGAGTILELK
B17: G2.760 rat (antibody, V domains shown)
VH: EVQLVESGGGLVQPGRSMKLSCAASGFTFSKSDMAWVRQAPTKGLKWVASIRYDGGNTYYRDSVRGRFTISRDNAKSTLYLQMDSLRSEDTATYYCSTAKAAISTPSYYVLDAWGQGASVTVSS
VL: DIGMTQSPTSMSKSVGDRVTMNCKASQNVGSNVDWFQQKTGQSPKLLIYKSSNRYTGVPARFTGSGSGTDFTFTISNMQAEDLAVYYCMQSNSYPPTFGGGTKLELK
B18: G2.757 rat (antibody, V domains shown)
VH: QVTLKESGPGILRPSHTLSLTCSFSGFSLTTYGICVSWIRQPSGKGLEWLANICWEDSKAYNPSLKNRLTISKDTSNNQVFLRIPSVDTADSAIYYCARVFNNYPFPYWGQGTLVTVSS
VL: TQSPPSLSASLGDKVTITCQASQNINKYVAWYQQKPGKAPRLLIRYTSTLESGTPSRFSGSGSWRDYSFSISNVESEDIADYYCLQYVNLWTFGGGTKLELK

Target: T1, cynomolgus ABCG2 (Macaca fascicularis)
Assay: cell binding
In the case of B1, the EC50 is reported as 87.4 nM.
With B2 the EC50 was 38.8 nM.
For B3, the EC50 was 42.6 nM.
With B4 the EC50 was 65.3 nM.

Target: T2, human ABCG2
Assay: cell binding
Binder B1 has an EC50 of 28.5 nM.
B2 was tested, and the EC50 was 23.1 nM.
In the case of B3, the EC50 is reported as 20.4 nM.
With B4 the EC50 was 18.5 nM.

Target: T2, human ABCG2
Assay: FACS cell binding (MFI)
In the case of B5, the EC50 is reported as 180 nM.
B6 showed an EC50 of 17.1 nM.

Target: T1, cynomolgus ABCG2 (Macaca fascicularis)
Assay: FACS binding to 293T cells
B7 showed a Kd of 67.7 nM.
Binder B8 has a Kd of 540 nM.
B9 was tested, and the Kd was 111 nM.
With B10 the Kd was 49.8 nM.
B11 was tested, and the Kd was 58.4 nM.
B12 showed a Kd of 29.9 nM.

Target: T2, human ABCG2
Assay: FACS binding to 293T cells
B7 was tested, and the Kd was 4.6 nM.
Work on B8 yielded a Kd of 50.1 nM.
B11 showed a Kd of 8.4 nM.
In the case of B12, the Kd is reported as 11.1 nM.

Target: T1, cynomolgus ABCG2 (Macaca fascicularis)
Assay: FACS binding to 293T cells
Remark: another data set of the same source
In the case of B7, the Kd is reported as 15 nM.
For B13, the Kd was 14.8 nM.
For B14, the Kd was 93.4 nM.

Target: T2, human ABCG2
Assay: FACS binding to 293T cells
Remark: another data set of the same source
With B13 the Kd was 6.2 nM.
With B14 the Kd was 35.3 nM.

Target: T2, human ABCG2
Assay: FACS binding to 293T.hG2 cells
B15 gave a Kd of 31.2 nM.
Binder B16 has a Kd of 17.5 nM.
B17 gave a Kd of 3.4 nM.
Work on B18 yielded a Kd of 12.4 nM.

Target: T1, cynomolgus ABCG2 (Macaca fascicularis)
Assay: FACS binding to 293T.cG2 cells
In the case of B15, the Kd is reported as 1370 nM.
B16 was tested, and the Kd was 107 nM.
B17 gave a Kd of 2.4 nM.
B18 gave a Kd of 73.5 nM.
